Measurements from the supplement of paper PMC11246515.
± gives the standard deviation of the averaged measurements.

Test: total protein half-life in vivo (active degradation + dilution); higher = more stable protein
[1] = E. coli NCM3722 delta-clpP delta-lon delta-hslV, growth: N-lim chemostat, doubling time 6 h
[2] = E. coli NCM3722 delta-clpP, growth: N-lim chemostat, doubling time 6 h
[3] = E. coli NCM3722 delta-hslV, growth: N-lim chemostat, doubling time 6 h
[4] = E. coli NCM3722 delta-lon, growth: N-lim chemostat, doubling time 6 h
[5] = E. coli NCM3722 delta-smpB, growth: N-lim chemostat, doubling time 6 h
[6] = wild type E. coli NCM3722, growth: C-lim chemostat, doubling time 3 h
[7] = wild type E. coli NCM3722, growth: C-lim chemostat, doubling time 6 h
[8] = wild type E. coli NCM3722, growth: C-lim chemostat, doubling time 12 h
[9] = wild type E. coli NCM3722, growth: N-lim chemostat, doubling time 6 h
[10] = wild type E. coli NCM3722, growth: N-lim chemostat, doubling time 12 h
[11] = wild type E. coli NCM3722, growth: P-lim chemostat, doubling time 6 h
[12] = wild type E. coli NCM3722, growth: P-lim chemostat, doubling time 12 h

Sequence	total protein half-life in vivo [1] [h]	total protein half-life in vivo [2] [h]	total protein half-life in vivo [3] [h]	total protein half-life in vivo [4] [h]	total protein half-life in vivo [5] [h]	total protein half-life in vivo [6] [h]	total protein half-life in vivo [7] [h]	total protein half-life in vivo [8] [h]	total protein half-life in vivo [9] [h]	total protein half-life in vivo [10] [h]	total protein half-life in vivo [11] [h]	total protein half-life in vivo [12] [h]
MTHFSQQDNFSVAARVLGALFYYAPESAEAAPLVAVLTSDGWETQWPLPEASLAPLVTAFQTQCEETHAQAWQRLFVGPWALPSPPWGSVWLDRESVLFGDSTLALRQWMREKGIQFEMKQNEPEDHFGSLLLMAAWLAENGRQTECEELLAWHLFPWSTRFLDVFIEKAEHPFYRALGELARLTLAQWQSQLLIPVAVKPLFR	3.98 ± 0.19	4.54 ± 1.1	4.18 ± 0.73	5.74 ± 1.5	4.5 ± 0.51	3 ± 0.17	5.45	11.7 ± 1.3	4.4 ± 0.41	7.72 ± 1.9	5.41 ± 0.39	11.3 ± 0.19
MTHIRIEKGTGGWGGPLELKATPGKKIVYITAGTRPAIVDKLAQLTGWQAIDGFKEGEPAEAEIGVAVIDCGGTLRCGIYPKRRIPTINIHSTGKSGPLAQYIVEDIYVSGVKEENITVVGDATPQPSSVGRDYDTSKKITEQSDGLLAKVGMGMGSTVAVLFQSGRDTIDTVLKTILPFMAFVSALIGIIMASGLGDWIAHGLAPLASHPLGLVMLALICSFPLLSPFLGPGAVIAQVIGVLIGVQIGLGNIPPHLALPALFAINAQAACDFIPVGLSLAEARQDTVRVGVPSVLVSRFLTGAPTVLIAWFVSGFIYQ		5.44		5.5		2.06 ± 0.099	4.93		4.5			
MTHVCSVILIRRSFDIYHEQQKISLHNESILLLEKNLADDFAFCSPDTRRLDIDELTVCHYLQNIRQLPRNLGLHSKDRLLINQSPPMPLVTAIFDSFNESGVNSPILSNMLYLSCLSMFSHKKELIPLLFNSISTVSGKVERLISFDIAKRWYLRDIAERMYTSESLIKKKLQDENTCFSKILLASRMSMARRLLELRQIPLHTIAEKCGYSSTSYFINTFRQYYGVTPHQFAQHSPGTFS	5.33 ± 0.16	1.51			0.628				0.171			
MTIFDNYEVWFVIGSQHLYGPETLRQVTQHAEHVVNALNTEAKLPCKLVLKPLGTTPDEITAICRDANYDDRCAGLVVWLHTFSPAKMWINGLTMLNKPLLQFHTQFNAALPWDSIDMDFMNLNQTAHGGREFGFIGARMRQQHAVVTGHWQDKQAHERIGSWMRQAVSKQDTRHLKVCRFGDNMREVAVTDGDKVAAQIKFGFSVNTWAVGDLVQVVNSISDGDVNALVDEYESCYTMTPATQIHGKKRQNVLEAARIELGMKRFLEQGGFHAFTTTFEDLHGLKQLPGLAVQRLMQQGYGFAGEGDWKTAALLRIMKVMSTGLQGGTSFMEDYTYHFEKGNDLVLGSHMLEVCPSIAAEEKPILDVQHLGIGGKDDPARLIFNTQTGPAIVASLIDLGDRYRLLVNCIDTVKTPHSLPKLPVANALWKAQPDLPTASEAWILAGGAHHTVFSHALNLNDMRQFAEMHDIEITVIDNDTRLPAFKDALRWNEVYYGFRR	3.94 ± 0.26	3.03 ± 0.081	3.07	3.405 ± 0.014	3.25 ± 0.17	2.84 ± 0.36	5.77 ± 0.19	9.63 ± 1.2	3.26		5.05 ± 0.14	11.6 ± 1.2
MTIHKKGQAHWEGDIKRGKGTVSTESGVLNQQPYGFNTRFEGEKGTNPEELIGAAHAACFSMALSLMLGEAGFTPTSIDTTADVSLDKVDAGFAITKIALKSEVAVPGIDASTFDGIIQKAKAGCPVSQVLKAEITLDYQLKS [P0C0L2]	5.71 ± 0.14	5.45 ± 0.62	5.59 ± 0.41	5.84 ± 0.083	4.963 ± 0.042	3.08 ± 0.62	6.63 ± 0.81	12.1 ± 0.22	5.3 ± 0.28	9.59 ± 0.6	5.84 ± 0.082	12.6 ± 0.93
MTIKLIVGLANPGAEYAATRHNAGAWFVDLLAERLRAPLREEAKFFGYTSRVTLGGEDVRLLVPTTFMNLSGKAVAAMASFFRINPDEILVAHDELDLPPGVAKFKLGGGHGGHNGLKDIISKLGNNPNFHRLRIGIGHPGDKNKVVGFVLGKPPVSEQKLIDEAIDEAARCTEMWFTDGLTKATNRLHAFKAQ [P0A7D1]	5.126 ± 0.023		4.76 ± 0.084	5.04 ± 0.51	4.54 ± 0.08	3.19 ± 0.081	6.09 ± 0.37	10.5 ± 0.85	4.81 ± 0.17	8.06 ± 0.66	5.91 ± 0.13	11.4 ± 0.29
MTILSLSRFMLAGVLLASFNASAIPGFWQQGYGQGNTEYSVTEASGKTFTINCTGNPDQNGFYQHSVFLTLADDKMVSSHDDDTTITVVMDHQQYIIPSSLGWRNGDNAWFDFISNISEAGQFDVYVNDHKAGTFTADRKNAEKVLSTLGDCSND								5.33				
MTINFRRNALQLSVAALFSSAFMANAADVPQVKVTVTDKQCEPMTITVNAGKTQFIIQNHSQKALEWEILKGVMVVEERENIAPGFSQKMTANLQPGEYDMTCGLLTNPKGKLIVKGEATADAAQSDALLSLGGAITAYKAYVMAETTQLVTDTKAFTDAIKAGDIEKAKALYAPTRQHYERIEPIAELFSDLDGSIDAREDDYEQKAADPKFTGFHRLEKALFGDNTTKGMDQYAEQLYTDVVDLQKRISELAFPPSKVVGGAAGLIEEVAASKISGEEDRYSHTDLWDFQANVEGSQKIVDLLRPQLQKANPELLAKVDANFKKVDTILAKYRTKDGFETYDKLTDADRNALKGPITALAEDLAQLRGVLGLD [P0AB24]	4.39 ± 0.98	4.5 ± 0.11	6.43 ± 1.4	5.84 ± 0.061	4.58 ± 1.5	2.967 ± 0.019	6.25 ± 0.72	12.8 ± 0.93	5.73 ± 0.24	10.3 ± 0.23	5.01 ± 0.35	12.2 ± 2.8
MTISELLQYCMAKPGAEQSVHNDWKATQIKVEDVLFAMVKEVENRPAVSLKTSPELAELLRQQHSDVRPSRHLNKAHWSTVYLDGSLPDSQIYYLVDASYQQAVNLLPEEKRKLLVQL [P0AF50]	6.83 ± 0.78	5.39 ± 0.71	5.05	5.47 ± 0.13	4.39	> 4	4.6917 ± 0.0045	7.14 ± 1.4	3.752 ± 0.03	8.4 ± 3	4.6 ± 1.2	9.9 ± 0.1
